Laboratory results: the supplement of paper PMC11316812
± gives the standard deviation of the averaged measurements.

Columns and labels:
MCF7 = assay: percentage of EdU-negative (G0-arrested) nuclei per well, 72 h; higher = more G0 arrest; details: reference: sequence is the full UniProt precursor, the tested protein was the secreted form or ectodomain
hTERT-HMEC = assay: as above; details: reference: sequence is the full UniProt precursor, the tested protein was the secreted form or ectodomain
[1] = protein concentration 0.0307925 µM
[2] = protein concentration 0.307925 µM
[3] = protein concentration 0.03125 µM
[4] = protein concentration 0.3125 µM
[5] = protein concentration 0.0225 µM
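Also: secreted proteins added to cultured cells, EdU pulse at the end, nuclei found by Hoechst imaging, EdU status from nuclear versus surrounding ring intensity ratio, PBS as neutral control.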

Row | Sequence | percentage of EdU-negative (MCF7; [5]) [%] | percentage of EdU-negative (MCF7; protein concentration 0.225 µM) [%] | percentage of EdU-negative (hTERT-HMEC; [5]) [%] | percentage of EdU-negative (hTERT-HMEC; protein concentration 0.225 µM) [%] | further results
1 | MAFLGLFSLLVLQSMATGATFPEEAIADLSVNMYNRLRATGEDENILFSPLSIALAMGMMELGAQGSTQKEIRHSMGYDSLKNGEEFSFLKEFSNMVTAKESQYVMKIANSLFVQNGFHVNEEFLQMMKKYFNAAVNHVDFSQNVAVANYINKWVENNTNNLVKDLVSPRDFDAATYLALINAVYFKGNWKSQFRPENTRTFSFTKDDESEVQIPMMYQQGEFYYGEFSDGSNEAGGIYQVLEIPYEGDEISMMLVLSRQEVPLATLEPLVKAQLVEEWANSVKKQKVEVYLPRFTVEQEIDLKDVLKALGITEIFIKDANLTGLSDNKEIFLSKAIHKSFLEVNEEGSEAAAVSGMIAISRMAVLYPQVIVDHPFFFLIRNRRTGTILFMGRVMHPETMNTSGHDFEEL |  |  |  |  | percentage of EdU-negative (MCF7; [1]): 22.8 ± 1.4%; percentage of EdU-negative (MCF7; [2]): 27.7 ± 2.1%; percentage of EdU-negative (hTERT-HMEC; [1]): 4.97 ± 0.78%; percentage of EdU-negative (hTERT-HMEC; [2]): 49.1 ± 2.1%
2 | MALLPVLFLVTVLLPSLPAEGKDPAFTALLTTQLQVQREIVNKHNELRKAVSPPASNMLKMEWSREVTTNAQRWANKCTLQHSDPEDRKTSTRCGENLYMSSDPTSWSSAIQSWYDEILDFVYGVGPKSPNAVVGHYTQLVWYSTYQVGCGIAYCPNQDSLKYYYVCQYCPAGNNMNRKNTPYQQGTPCAGCPDDCDKGLCTNSCQYQDLLSNCDSLKNTAGCEHELLKEKCKATCLCENKIY |  |  |  |  | percentage of EdU-negative (MCF7; [3]): 26.4 ± 1.6%; percentage of EdU-negative (MCF7; [4]): 25 ± 1.1%; percentage of EdU-negative (hTERT-HMEC; [3]): 5.26 ± 0.72%; percentage of EdU-negative (hTERT-HMEC; [4]): 6.12 ± 1.6%
3 | MRAAGTLLAFCCLVLSTTGGPSPDTCSQDLNSRVKPGFPKTIKTNDPGVLQAARYSVEKFNNCTNDMFLFKESRITRALVQIVKGLKYMLEVEIGRTTCKKNQHLRLDDCDFQTNHTLKQTLSCYSEVWVVPWLQHFEVPVLRCH | 27.2 ± 0.74 | 27.2 ± 1.1 | 4.61 ± 0.72 | 4.863 ± 0.024 | 
4 | MALRRLGAALLLLPLLAAVEETLMDSTTATAELGWMVHPPSGWEEVSGYDENMNTIRTYQVCNVFESSQNNWLRTKFIRRRGAHRIHVEMKFSVRDCSSIPSVPGSCKETFNLYYYEADFDSATKTFPNWMENPWVKVDTIAADESFSQVDLGGRVMKINTEVRSFGPVSRSGFYLAFQDYGGCMSLIAVRVFYRKCPRIIQNGAIFQETLSGAESTSLVAARGSCIANAEEVDVPIKLYCNGDGEWLVPIGRCMCKAGFEAVENGTVCRGCPSGTFKANQGDEACTHCPINSRTTSEGATNCVCRNGYYRADLDPLDMPCTTIPSAPQAVISSVNETSLMLEWTPPRDSGGREDLVYNIICKSCGSGRGACTRCGDNVQYAPRQLGLTEPRIYISDLLAHTQYTFEIQAVNGVTDQSPFSPQFASVNITTNQAAPSAVSIMHQVSRTVDSITLSWSQPDQPNGVILDYELQYYEKELSEYNATAIKSPTNTVTVQGLKAGAIYVFQVRARTVAGYGRYSGKMYFQTMTEAEYQTSIQEKLPLIIGSSAAGLVFLIAVVVIAIVCNRRGFERADSEYTDKLQHYTSGHMTPGMKIYIDPFTYEDPNEAVREFAKEIDISCVKIEQVIGAGEFGEVCSGHLKLPGKREIFVAIKTLKSGYTEKQRRDFLSEASIMGQFDHPNVIHLEGVVTKSTPVMIITEFMENGSLDSFLRQNDGQFTVIQLVGMLRGIAAGMKYLADMNYVHRDLAARNILVNSNLVCKVSDFGLSRFLEDDTSDPTYTSALGGKIPIRWTAPEAIQYRKFTSASDVWSYGIVMWEVMSYGERPYWDMTNQDVINAIEQDYRLPPPMDCPSALHQLMLDCWQKDRNHRPKFGQIVNTLDKMIRNPNSLKAMAPLSSGINLPLLDRTIPDYTSFNTVDEWLEAIKMGQYKESFANAGFTSFDVVSQMMMEDILRVGVTLAGHQKKILNSIQVMRAQMNQIQSVEGQPLARRPRATGRTKRCQPRDVTKKTCNSNDGKKKGMGKKKTDPGRGREIQGIFFKEDSHKESNDCSCGG [Q6NVW1] | 25.8 ± 2.3 | 26.5 ± 1 | 5.5 ± 0.22 | 8.19 ± 1 | 
5 | MTLFPVLLFLVAGLLPSFPANEDKDPAFTALLTTQTQVQREIVNKHNELRRAVSPPARNMLKMEWNKEAAANAQKWANQCNYRHSNPKDRMTSLKCGENLYMSSASSSWSQAIQSWFDEYNDFDFGVGPKTPNAVVGHYTQVVWYSSYLVGCGNAYCPNQKVLKYYYVCQYCPAGNWANRLYVPYEQGAPCASCPDNCDDGLCTNGCKYEDLYSNCKSLKLTLTCKHQLVRDSCKASCNCSNSIY | 24.2 ± 0.4 | 27.5 ± 3 | 4.68 ± 0.23 | 4.83 ± 0.81 | 
6 | MQPRRQRLPAPWSGPRGPRPTAPLLALLLLLAPVAAPAGSGDPDDPGQPQDAGVPRRLLQQAARAALHFFNFRSGSPSALRVLAEVQEGRAWINPKEGCKVHVVFSTERYNPESLLQEGEGRLGKCSARVFFKNQKPRPTINVTCTRLIEKKKRQQEDYLLYKQMKQLKNPLEIVSIPDNHGHIDPSLRLIWDLAFLGSSYVMWEMTTQVSHYYLAQLTSVRQWKTNDDTIDFDYTVLLHELSTQEIIPCRIHLVWYPGKPLKVKYHCQELQTPEEASGTEEGSAVVPTELSNF | 24.2 ± 1.8 | 28 ± 0.37 | 5.08 ± 0.6 | 4.8 ± 0.36 | 
